These results are taken from publication PMC6140609 (Oncoimmunology, 2018).

As usually defined, the EC50 is the concentration that produces a half-maximal response. Lower therefore signals higher potency in that assay. For orientation: stoichiometry N means a count of units in the complex or per binding partner.

One data set concerns the target Human OX40-Fc (human) (UniProt P43489). The experiment in a line: ELISA.
The data set “SEC” concerns the molecule itself. The experiment in a line: SEC. In general terms: Size exclusion chromatography separates by hydrodynamic size, large species first.
A further data set deals with Human CD40-Fc (human, UniProt P25942 21-193). Briefly: ELISA.
Sequence of Human CD40-Fc (P25942 21-193): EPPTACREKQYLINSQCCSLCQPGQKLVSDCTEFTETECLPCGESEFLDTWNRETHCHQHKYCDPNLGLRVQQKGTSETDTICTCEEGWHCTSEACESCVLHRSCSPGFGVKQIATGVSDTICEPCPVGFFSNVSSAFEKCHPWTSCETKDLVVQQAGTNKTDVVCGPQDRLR

Sequence of Human OX40-Fc (human) (P43489 29-214): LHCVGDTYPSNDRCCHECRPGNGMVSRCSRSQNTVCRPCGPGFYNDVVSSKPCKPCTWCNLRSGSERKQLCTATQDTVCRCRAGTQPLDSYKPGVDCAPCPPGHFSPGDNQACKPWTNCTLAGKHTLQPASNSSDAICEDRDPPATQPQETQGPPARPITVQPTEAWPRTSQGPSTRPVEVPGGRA

In the data set with Human OX40-Fc (human), “scCD27L-scOX40L (from UniProt P32970 52-193; P32970 52-193; P32970 52-193; P23510 51-183; P23510 51-183; P23510 51-183) (ligand)” registered an EC50 of 0.0143 µM.
Same read-out and setting: then “scOX40L-scCD27L (from UniProt P23510 51-183; P23510 51-183; P23510 51-183; P32970 52-193; P32970 52-193; P32970 52-193) (ligand)”, with 0.0602 µM.

B1: CD27L-CD40L (ligand, human)
chain: SLGWDVAELQLNHTGPQQDPRLYWQGGPALGRSFLHGPELDKGQLRIHRDGIYMVHIQVTLAICSSTTASRHHPTTLAVGICSPASRSISLLRLSFHQGCTIASQRLTPLARGDTLCTNLTGTLLPSRNTDETFFGVQWVRPGGGGSGGGGSGGGGSGDQNPQIAAHVISEASSKTTSVLQWAEKGYYTMSNNLVTLENGKQLTVKRQGLYYIYAQVTFCSNREASSQAPFIASLCLKSPGRFERILLRAANTHSSAKPCGQQSIHLGGVFELQPGASVFVNVTDPSQVSHGTGFTSFGLLKL
With B1, in the data set “SEC”, the “stoichiometry N” value came to 3.

B2: CD40L-CD27L (ligand, human)
chain: GDQNPQIAAHVISEASSKTTSVLQWAEKGYYTMSNNLVTLENGKQLTVKRQGLYYIYAQVTFCSNREASSQAPFIASLCLKSPGRFERILLRAANTHSSAKPCGQQSIHLGGVFELQPGASVFVNVTDPSQVSHGTGFTSFGLLKLGGGGSGGGGSGGGGSSLGWDVAELQLNHTGPQQDPRLYWQGGPALGRSFLHGPELDKGQLRIHRDGIYMVHIQVTLAICSSTTASRHHPTTLAVGICSPASRSISLLRLSFHQGCTIASQRLTPLARGDTLCTNLTGTLLPSRNTDETFFGVQWVRP
In the data set with Human CD40-Fc, B2 gave an EC50 of 0.0123 µM.

B3: CD27L-OX40L (ligand, human)
chain: SLGWDVAELQLNHTGPQQDPRLYWQGGPALGRSFLHGPELDKGQLRIHRDGIYMVHIQVTLAICSSTTASRHHPTTLAVGICSPASRSISLLRLSFHQGCTIASQRLTPLARGDTLCTNLTGTLLPSRNTDETFFGVQWVRPGGGGSGGGGSGGGGSQVSHRYPRIQSIKVQFTEYKKEKGFILTSQKEDEIMKVQNNSVIINCDGFYLISLKGYFSQEVNISLHYQKDEEPLFQLKKVRSVNSLMVASLTYKDKVYLNVTTDNTSLDDFHVNGGELILIHQNPGEFCVL
On to B3, for which, in the data set “SEC”, the “stoichiometry N” value turned out to be 3.

B4: OX40L-CD27L (ligand, human)
chain: QVSHRYPRIQSIKVQFTEYKKEKGFILTSQKEDEIMKVQNNSVIINCDGFYLISLKGYFSQEVNISLHYQKDEEPLFQLKKVRSVNSLMVASLTYKDKVYLNVTTDNTSLDDFHVNGGELILIHQNPGEFCVLGGGGSGGGGSGGGGSSLGWDVAELQLNHTGPQQDPRLYWQGGPALGRSFLHGPELDKGQLRIHRDGIYMVHIQVTLAICSSTTASRHHPTTLAVGICSPASRSISLLRLSFHQGCTIASQRLTPLARGDTLCTNLTGTLLPSRNTDETFFGVQWVRP
With B4, the “stoichiometry N” value in the data set “SEC” was 3.

B5: CD27L-4-1BBL (ligand, human)
chain: SLGWDVAELQLNHTGPQQDPRLYWQGGPALGRSFLHGPELDKGQLRIHRDGIYMVHIQVTLAICSSTTASRHHPTTLAVGICSPASRSISLLRLSFHQGCTIASQRLTPLARGDTLCTNLTGTLLPSRNTDETFFGVQWVRPGGGGSGGGGSGGGGSGGGGSREGPELSPDDPAGLLDLRQGMFAQLVAQNVLLIDGPLSWYSDPGLAGVSLTGGLSYKEDTKELVVAKAGVYYVFFQLELRRVVAGEGSGSVSLALHLQPLRSAAGAAALALTVDLPPASSEARNSAFGFQGRLLHLSAGQRLGVHLHTEARARHAWQLTQGATVLGLFRVTPEIPAGLPSPRSE
As for B5, the “stoichiometry N” value in “SEC” was determined as 3.

B6: OX40L-CD40L (ligand, human)
chain: QVSHRYPRIQSIKVQFTEYKKEKGFILTSQKEDEIMKVQNNSVIINCDGFYLISLKGYFSQEVNISLHYQKDEEPLFQLKKVRSVNSLMVASLTYKDKVYLNVTTDNTSLDDFHVNGGELILIHQNPGEFCVLGGGGSGGGGSGGGGSGDQNPQIAAHVISEASSKTTSVLQWAEKGYYTMSNNLVTLENGKQLTVKRQGLYYIYAQVTFCSNREASSQAPFIASLCLKSPGRFERILLRAANTHSSAKPCGQQSIHLGGVFELQPGASVFVNVTDPSQVSHGTGFTSFGLLKL
For B6, the “stoichiometry N” value in “SEC” was 3.

B7: OX40L-4-1BBL (ligand, human)
chain: QVSHRYPRIQSIKVQFTEYKKEKGFILTSQKEDEIMKVQNNSVIINCDGFYLISLKGYFSQEVNISLHYQKDEEPLFQLKKVRSVNSLMVASLTYKDKVYLNVTTDNTSLDDFHVNGGELILIHQNPGEFCVLGGGGSGGGGSGGGGSGGGGSREGPELSPDDPAGLLDLRQGMFAQLVAQNVLLIDGPLSWYSDPGLAGVSLTGGLSYKEDTKELVVAKAGVYYVFFQLELRRVVAGEGSGSVSLALHLQPLRSAAGAAALALTVDLPPASSEARNSAFGFQGRLLHLSAGQRLGVHLHTEARARHAWQLTQGATVLGLFRVTPEIPAGLPSPRSE
As to B7, the “stoichiometry N” value in “SEC” is 3.

B8: CD40L-OX40L (ligand, human)
chain: GDQNPQIAAHVISEASSKTTSVLQWAEKGYYTMSNNLVTLENGKQLTVKRQGLYYIYAQVTFCSNREASSQAPFIASLCLKSPGRFERILLRAANTHSSAKPCGQQSIHLGGVFELQPGASVFVNVTDPSQVSHGTGFTSFGLLKLGGGGSGGGGSGGGGSQVSHRYPRIQSIKVQFTEYKKEKGFILTSQKEDEIMKVQNNSVIINCDGFYLISLKGYFSQEVNISLHYQKDEEPLFQLKKVRSVNSLMVASLTYKDKVYLNVTTDNTSLDDFHVNGGELILIHQNPGEFCVL
Turning to B8, the “stoichiometry N” value in “SEC” stood at 3.
